This experiment concerns the target glycosylated myrosinase without GST-tag (produced in S. cerevisiae MGY70-myr) (broccoli). Description: SEC; Sephacryl S-200 HR column 0.7 x 30 cm, 1 mL of purified myrosinase fraction (1 mg/mL) loaded, 0.3 mL/min, 0.2 M Tris-HCl pH 7.4; mass from a calibration curve with protein standards; self-association, monomer to dimer. A general note: In gel filtration, larger molecules generally elute earlier.

With “glycosylated myrosinase without GST-tag (produced in S. cerevisiae MGY70-myr) (enzyme)”, the stoichiometry N (usually the number of molecules, sites or subunits per partner or assembly) was found to be 2.
